Test results: PMC5523840

Molecular target: T1, TFCP2 (LBP-1c/CP2/LSF) (UniProt Q12800 1-502)
T1 sequence: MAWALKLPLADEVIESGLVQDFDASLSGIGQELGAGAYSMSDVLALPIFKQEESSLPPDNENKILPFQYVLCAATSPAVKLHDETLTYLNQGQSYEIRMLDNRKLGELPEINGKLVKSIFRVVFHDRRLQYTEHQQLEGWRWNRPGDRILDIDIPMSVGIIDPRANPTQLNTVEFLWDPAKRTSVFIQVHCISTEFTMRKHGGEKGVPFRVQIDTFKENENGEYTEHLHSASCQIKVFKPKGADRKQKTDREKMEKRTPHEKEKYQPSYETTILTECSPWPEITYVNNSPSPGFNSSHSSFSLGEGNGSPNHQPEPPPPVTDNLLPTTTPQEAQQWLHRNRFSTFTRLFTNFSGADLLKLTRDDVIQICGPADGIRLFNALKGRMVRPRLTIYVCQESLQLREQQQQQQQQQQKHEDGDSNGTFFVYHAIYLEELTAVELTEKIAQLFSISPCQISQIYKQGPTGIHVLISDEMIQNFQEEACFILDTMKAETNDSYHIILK
Assay: EMSA

B1: rs2830077[A] (dsDNA)
DNA 1: GACACGCTGACTTCCAGGCAAAAGCCAGGCACAAGAGAAGC
DNA 2: GCTTCTCTTGTGCCTGGCTTTTGCCTGGAAGTCAGCGTGTC
- binding signal: 1 fold band intensity (reference for the C allele, 46% greater)
